{"source": "paper PMC5469797", "about": "“Discovery of a novel conformational equilibrium in urokinase-type plasminogen activator” (Scientific Reports, 2017)", "binders": {"B1": {"name": "anti-muPA allosteric nanobody Nb7 (VHH)", "VHH": "QVQLQESGGGLVQPGGSLRLSCAASGFTLGYYAIGWFRRAPGKEREGVSCISSSGGSTNYADSVKGRFTISRDNAKNTVDLQMNSLKPEDTAIYYCAAEWVPPGYGATVQALCNNAGYGMEYWGKGTQVTVSS", "notes": "from an immunised alpaca phage library; All residues of Nb7 were visible in the electron density of 5LHN; source: E. coli WK6 (su-), produced as described previously"}}, "target": "T1, full-length muPA inhibited at the active site with Glu-Gly-Arg-chloromethylketone (Mus musculus, UniProt P06869, irreversible active site binding ligand Glu-Gly-Arg-chloromethylketone (EGR-cmk) in the active site)", "T1 construct": "as m2; source: HEK293 6E suspension cells, purified by nickel-Sepharose chromatography; reacted with EGR-cmk", "T1 sequence (P06869 21-433)": "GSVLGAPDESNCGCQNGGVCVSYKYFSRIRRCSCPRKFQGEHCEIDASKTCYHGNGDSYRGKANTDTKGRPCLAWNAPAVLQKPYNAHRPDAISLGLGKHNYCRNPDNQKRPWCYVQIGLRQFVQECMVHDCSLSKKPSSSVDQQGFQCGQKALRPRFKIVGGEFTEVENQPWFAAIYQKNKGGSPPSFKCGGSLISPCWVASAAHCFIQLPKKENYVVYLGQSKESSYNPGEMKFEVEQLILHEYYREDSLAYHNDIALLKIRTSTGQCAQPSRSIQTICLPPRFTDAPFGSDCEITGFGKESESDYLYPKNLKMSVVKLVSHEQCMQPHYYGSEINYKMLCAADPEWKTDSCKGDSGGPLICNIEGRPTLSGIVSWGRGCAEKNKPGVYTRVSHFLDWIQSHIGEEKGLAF", "experiment": "SPR; BiaCore T100, 22 °C, curves fitted to a 1:1 binding model; who was immobilised is not told (SI Methods)", "settings": "both partners purified"}
{"binder": "B1", "values": [{"measurement": "fold change of KD against muPA without EGR-cmk", "result": 1.5, "unit": "fold"}]}
